Columns and labels:
hydrolysis kinetics = substrate: CCCC(=O)Oc1ccc([N+](=O)[O-])cc1; test: hydrolysis kinetics; type: biochemical, Archaeoglobus fulgidus; settings: 37°C
Excerpt: hydrolysis kinetics on AFEST

[1] = substrate: CCCC(=O)Oc1ccc2c(c1)Oc1cc(OC(=O)CCC)ccc1C21OC(=O)c2ccccc21; test: cells, lysate or membranes; type: cell-based, Archaeoglobus fulgidus; settings: bulk reaction; enzyme preparation not told in main text (AFEST displayed on E. coli in the parallel droplet assay)

| Protein | Km (hydrolysis kinetics) [µM] | kcat (hydrolysis kinetics) [s⁻¹] | kcat/Km (hydrolysis kinetics) [M⁻¹ s⁻¹] | Km [1] [µM] |
| --- | --- | --- | --- | --- |
| AFEST (Archaeoglobus fulgidus DSM 4304) (protein, pET-28a(+) in E. coli BL21-CodonPlus(DE3), Ni-NTA purified; 5' primer starts … (MLDMPI)) MLDMPIDPVYYQLAEYFDSLPKFDQFSSAREYREAINRIYEERNRQLSQHERVERVEDRTIKGRNGDIRVRVYQQKPDSPVLVYYHGGGFVICSIESHDALCRRIARLSNSTVVSVDYRLAPEHKFPAAVYDCYDATKWVAENAEELRIDPSKIFVGGDSAGGNLAAAVSIMARDSGEDFIKHQILIYPVVNFVAPTPSLLEFGEGLWILDQKIMSWFSEQYFSREEDKFNPLASVIFADLENLPPALIITAEYDPLRDEGEVFGQMLRRAGVEASIVRYRGVLHGFINYYPVLKAARDAINQIAALLVFD | 22.47 | 135 | 6.03e+06 | 240 |
| AFEST (Archaeoglobus fulgidus DSM 4304; V293G) (protein, pET-28a(+) in E. coli BL21-CodonPlus(DE3), Ni-NTA purified; 5' primer starts … (MLDMPI)) MLDMPIDPVYYQLAEYFDSLPKFDQFSSAREYREAINRIYEERNRQLSQHERVERVEDRTIKGRNGDIRVRVYQQKPDSPVLVYYHGGGFVICSIESHDALCRRIARLSNSTVVSVDYRLAPEHKFPAAVYDCYDATKWVAENAEELRIDPSKIFVGGDSAGGNLAAAVSIMARDSGEDFIKHQILIYPVVNFVAPTPSLLEFGEGLWILDQKIMSWFSEQYFSREEDKFNPLASVIFADLENLPPALIITAEYDPLRDEGEVFGQMLRRAGVEASIVRYRGVLHGFINYYPGLKAARDAINQIAALLVFD | 9.74 | 118 | 1.21e+07 | – |
| AFEST (Archaeoglobus fulgidus DSM 4304; V293E) (protein, pET-28a(+) in E. coli BL21-CodonPlus(DE3), Ni-NTA purified; 5' primer starts … (MLDMPI)) MLDMPIDPVYYQLAEYFDSLPKFDQFSSAREYREAINRIYEERNRQLSQHERVERVEDRTIKGRNGDIRVRVYQQKPDSPVLVYYHGGGFVICSIESHDALCRRIARLSNSTVVSVDYRLAPEHKFPAAVYDCYDATKWVAENAEELRIDPSKIFVGGDSAGGNLAAAVSIMARDSGEDFIKHQILIYPVVNFVAPTPSLLEFGEGLWILDQKIMSWFSEQYFSREEDKFNPLASVIFADLENLPPALIITAEYDPLRDEGEVFGQMLRRAGVEASIVRYRGVLHGFINYYPELKAARDAINQIAALLVFD | 12.13 | 138 | 1.14e+07 | – |
| AFEST (Archaeoglobus fulgidus DSM 4304; F287Y/S94G) (protein, pET-28a(+) in E. coli BL21-CodonPlus(DE3), Ni-NTA purified; 5' primer starts … (MLDMPI)) MLDMPIDPVYYQLAEYFDSLPKFDQFSSAREYREAINRIYEERNRQLSQHERVERVEDRTIKGRNGDIRVRVYQQKPDSPVLVYYHGGGFVICGIESHDALCRRIARLSNSTVVSVDYRLAPEHKFPAAVYDCYDATKWVAENAEELRIDPSKIFVGGDSAGGNLAAAVSIMARDSGEDFIKHQILIYPVVNFVAPTPSLLEFGEGLWILDQKIMSWFSEQYFSREEDKFNPLASVIFADLENLPPALIITAEYDPLRDEGEVFGQMLRRAGVEASIVRYRGVLHGYINYYPVLKAARDAINQIAALLVFD | 15.42 | 155 | 1e+07 | – |

Source: publication PMC3933655, “An Improved Single Cell Ultrahigh Throughput Screening Method Based on In Vitro Compartmentalization” (PLoS ONE, 2014)
